In US20250257332A1 (MONASH UNIVERSITY, published 2025):

Molecular target: T1, recombinant mouse CCR5 (MyBioSource) (mouse, UniProt P51682 1-354, limits assumed)
T1 construct: Coated on ELISA plates at 20 nM; also called mrCCR5
Assay: competition ELISA: hNAMPTcif 0-100 nM against 100 nM hrNAMPT(1) on coated recombinant mouse CCR5
Description: hrNAMPT competitive binding to mrCCR5: ELISA plates (Medium binding, Greiner Bio-One) were coated with 1% BSA or 20 nM of recombinant mouse CCR5 (MyBioSource) in PBS overnight at 4° C. Then, wells were blocked for 1 h at room temperature with 1% BSA in PBS containing 0.05% Tween-20 (PBS-T). Wells were washed 3 times with PBS-T and further incubated with hNAMPTcif at increasing concentration (0 nM to 100 nM) for 1 h in PBS-T with 0.1% BSA containing 100 nM hrNAMPT (1) (Peprotech). Bound hrNAMPT (1) molecules were detected using a biotinylated antibody for NAMPT and HRP-streptavidin (Human PBEF/Visfatin DuoSet ELISA, R&D Systems). Signals obtained on BSA-coated wells were used to remove non-specific binding for each hrNAMPT concentrations to obtain specific binding values. Specific binding data were fitted by non-linear regression with Prism 7 to obtain the half maximal inhibitory concentration (IC50) of hNAMPTnif using A450nm=A450nmMin+(A450nmMax−A450nmMin)/(1+10\hat{ }(X-LogIC50)).

T1 sequence (P51682 whole entry): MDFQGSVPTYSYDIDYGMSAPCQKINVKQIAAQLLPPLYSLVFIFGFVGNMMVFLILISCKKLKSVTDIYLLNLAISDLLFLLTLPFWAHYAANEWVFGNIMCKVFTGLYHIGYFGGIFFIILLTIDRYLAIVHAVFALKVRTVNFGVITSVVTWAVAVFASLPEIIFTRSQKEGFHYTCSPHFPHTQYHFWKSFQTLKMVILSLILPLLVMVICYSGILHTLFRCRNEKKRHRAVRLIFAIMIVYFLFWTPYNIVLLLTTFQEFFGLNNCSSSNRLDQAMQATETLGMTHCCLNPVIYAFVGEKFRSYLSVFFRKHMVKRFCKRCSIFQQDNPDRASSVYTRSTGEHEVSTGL

B1: human NAMPT cytokine finger (hNAMPTcif; NAMPT402-491) (ligand)
chain: SYVVTNGLGINVFKDPVADPNKRSKKGRLSLHRTPAGNFVTLEEGKGDLEEYGQDLLHTVFKNGKVTKSYSFDEIRKNAQLNIELEAAHH
notes: also called hNAMPTnif
B1 gave an IC50 of 21.5 nM.
